According to article PMC5477135, “Imaging of αvβ3 integrin expression in experimental myocardial ischemia with [^68Ga]NODAGA-RGD positron emission tomography” (Journal of Translational Medicine, 2017):
Marks after values point to notes of the source that are not given here.

Key:
in vivo [1] = settings: Finnish landrace, pig, iv, total radioactivity
Protocol: (§1) Coronary stenosis was created in 11 domestic, 3-month old pigs weighing 30–35 kg by implanting a bottleneck stent in the proximal LAD coronary artery as described previously. In addition, a sham group of 4 pigs underwent a catheterization procedure without the stent implantation. Myocardial [^68Ga]NODAGA-RGD uptake was evaluated by PET 13 ± 4 days after the stent implantation. […] Three pigs without a perfusion defect during adenosine stress were considered as procedural failures and excluded from further in vivo analyses.
(§2) Then a [^68Ga]NODAGA-RGD PET was performed with an ECAT EXACT HR+ scanner (Siemens-CTI, Knoxville, TN, USA). The studies were started with a 10 min transmission scan. The dynamic scanning started at the same time as 310 ± 43 MBq (230–400 MBq) of [^68Ga]NODAGA-RGD was injected via the ear vein. The acquisition time frames were as follows: 18 × 10 s, 4 × 30 s, 2 × 120 s, 1 × 180 s, 4 × 300 s, 3 × 600 s (total duration 62 min). The acquired [^68Ga]NODAGA-RGD PET data were corrected for scatter, random counts, and dead time and iteratively reconstructed with ordered-subsets expectation maximization (OSEM) algorithm using 2 iterations and 32 subsets. The whole transaxial field of view (70 cm) was reconstructed in 256 × 256 matrix yielding to pixel size of 2.57 mm × 2.57 mm. The device produces 63 axial planes with a slice thickness of 2.43 mm.
(§3) For quantification of [^68Ga]NODAGA-RGD uptake in the myocardium, the [^15O]water images and the [^68Ga]NODAGA-RGD images were co-registered using the high blood pool activity of the [^68Ga]NODAGA-RGD as a landmark (Fig. 1). The myocardial contours from the [^15O]water images were copied to the co-registered [^68Ga]NODAGA-RGD data. Then, the polar maps of [^68Ga]NODAGA-RGD uptake expressed as standardized uptake value (SUV) (time frame 52–62 min after injection) in the LV myocardium were generated using matching image orientation and sampling points. The region of interest (ROI) defining the ischemic area was copied from the [^15O]water polar maps to measure [^68Ga]NODAGA-RGD uptake in this region. The septum was excluded from the measurements to prevent spillover from the blood in the right ventricle. The mean and maximum SUVs were determined from the ischemic area. In order to measure the SUVs, ROI was modified to include only the mid-myocardium in order to avoid spill-over from blood. The maximum SUV within the ROI was determined from area showing visually the highest uptake. One segment in the posterolateral wall (segment 11) that was always outside the ischemic area was used to measure [^68Ga]NODAGA-RGD uptake in the remote myocardium. The ischemic-to-remote SUV ratio was calculated in the ischemic area and remote myocardium.

αvβ3 integrin [2] = assay: in vivo; settings: pig
Protocol: as §1, §2, §3

αvβ3 integrin [3] = settings: pig, in vivo
Excerpt: Subsequently, the pigs were euthanized and their hearts were excised. Based on 1% 2,3,5-triphenyltetrazolium chloride (TTC) (Sigma-Aldrich, Saint Louis, MO, USA) staining, tissue samples were obtained from the injured ischemic (TTC negative) and adjacent viable ischemic (TTC positive) myocardium as well as from the remote non-ischemic myocardium. Autoradiography of myocardial tissue sections was used to compare [^68Ga]NODAGA-RGD uptake with the histology, αvβ3 integrin expression and CD31 on endothelial cells. Immediately after the PET scanning, the animals were sacrificed by an i.v. injection of potassium chloride (B. Braun Medical Oy, Helsinki, Finland). The heart was excised, the LV was cut into 4 short axis slices from base to apex that were incubated for 15 min in 1% TTC (Sigma-Aldrich, Saint Louis, MO, USA), diluted in phosphate-buffered saline (pH 7.4) at 37 °C, photographed from both sides and the presence of non-viable ischemic area was confirmed visually. Based on the TTC staining, transmural samples containing non-viable and immediately adjacent viable myocardium were collected from the LV wall corresponding to the ischemic area in PET images. Another sample was obtained from the posterior LV wall representative of the remote region (segment number 11). Myocardial samples and a blood sample were weighed and measured for radioactivity using the gamma counter (Wizard). The radioactivity concentration was expressed as standardized uptake values (SUV = ([tissue radioactivity/tissue weight]/[total given radioactivity/animal body weight])).

αvβ3 integrin [4] = settings: pig, in vivo; remark: listed apart in the source
Excerpt: Subsequently, the pigs were euthanized and their hearts were excised. Based on 1% 2,3,5-triphenyltetrazolium chloride (TTC) (Sigma-Aldrich, Saint Louis, MO, USA) staining, tissue samples were obtained from the injured ischemic (TTC negative) and adjacent viable ischemic (TTC positive) myocardium as well as from the remote non-ischemic myocardium. Autoradiography of myocardial tissue sections was used to compare [^68Ga]NODAGA-RGD uptake with the histology, αvβ3 integrin expression and CD31 on endothelial cells. Tissue samples were frozen in isopentane mixed with dry ice and cut into serial 40 and 7 µm sections for autoradiography and immunohistochemical stainings respectively, using a cryomicrotome. Tissue sections of 40 μm thickness were immediately exposed on a phosphor imaging plate (BAS-TR2025, Fuji Photo Film Co. Ltd., Tokyo, Japan) for 2 h. The distribution of radioactivity on the plate was visualized and quantified using a Fluorescent Image Analyzer (Fujifilm FLA-5100, Fuji Photo Film Co. Ltd., Tokyo, Japan). Autoradiographs and hematoxylin & eosin (HE) staining images of the same sections were co-registered and [^68Ga]NODAGA-RGD accumulation was measured by drawing ROIs covering remote myocardium, and either viable or injured ischemic myocardium using TINA™ 2.10f software (Raytest Isotopenmessgeräte GmbH., Straubenhardt, Germany). Results were expressed as photostimulated luminescence per square millimetre (PSL/mm^2) and normalized for the injected radioactivity dose, animal weight and the radioactivity decay. Serial tissue sections of 7 μm were stained with H&E for general histology, Masson’s trichrome for differentiation myocytes and collagenous scar, and immunohistochemistry with antibodies against of CD31 on endothelial cells (dilution 1:250, Thermo Scientific, Cheshire, UK), αvβ3 integrin (dilution 1:200, Millipore, Temecula, CA, USA) and α-smooth muscle actin on myofibroblasts (dilution 1:30,000, Sigma-Aldrich, St. Louis, MO, USA). […]

in vitro = in vitro ADME; settings: plasma
Protocol: To evaluate species-dependent differences, the [^68Ga]NODAGA-RGD binding to human, pig and rat plasma proteins was measured using in vitro assay as described previously.

in vivo [5] = settings: pig, iv, total radioactivity
Protocol: During the [^68Ga]NODAGA-RGD PET imaging, blood samples (2 ml) were obtained into heparinized tubes from the femoral artery 2, 5, 10, 20, 30, 40, 50 and 60 min after the injection of [^68Ga]NODAGA-RGD for the measurements of total radioactivity, radiometabolites (proportion of authentic tracer), and plasma-to-blood ratio. The radioactivities of whole blood and blood plasma were measured using a gamma counter (1480 Wizard 3″; PerkinElmer, Turku, Finland).

## N=C(N)NCCC[C@@H]1NC(=O)[C@H](CCCCNC(=O)CCC(C(=O)O)N2CCN(CC(=O)O)CCN(CC(=O)O)CC2)NC(=O)[C@@H](Cc2ccc(O)cc2)NC(=O)[C@H](CC(=O)O)NC(=O)CNC1=O (stereo partly shown) [[^68Ga]NODAGA-RGD, metal not drawn]
In vivo [1]
  SUV: 1.3 ± 0.2 SUV
αvβ3 integrin [2]
  average myocardial uptake in the ischemic area higher than in the remote myocardium: 26%
  average uptake in the LV myocardium (SUV): 0.42 ± 0.10 SUV
  uptake in anteroseptal wall (segments 7 and 13) (SUV): 0.39 ± 0.11 SUV
  uptake in posterolateral wall (segment 11) (SUV): 0.36 ± 0.078 SUV
αvβ3 integrin [2]; iv
  Injured area SUVMax: 0.80 ^† SUV
  Ischemic area SUVMean: 0.61* SUV
αvβ3 integrin [3]
  radioactivity in tissue sample from injured myocardium (SUV): 0.79 ± 0.21 SUV
  radioactivity in tissue sample from remote myocardium (SUV): 0.49 ± 0.21 SUV
  radioactivity in tissue sample from viable ischemic myocardium (SUV): 0.49 ± 0.17 SUV
αvβ3 integrin [4]
  mean uptake by autoradiography, injured area: 4.6 ± 2.1 PSL/mm^2
  mean uptake by autoradiography, remote area: 1.8 ± 0.61 PSL/mm^2
  mean uptake by autoradiography, viable ischemic area: 2.2 ± 0.85 PSL/mm^2
In vitro; pig
  fraction unbound: 0.93 ± 0.017
In vitro; rat
  fraction unbound: 0.94 ± 0.011
In vivo [5]
  tissue to tissue ratio: 1.4 ± 0.1
